To fix the notation:
B1: NF2 (merlin) isoform 7, human, full length (507 aa, lacks exons 2-3 = isoform-1 residues 39-121; exon-16 C-terminus), P35240-4 (parent)
chain: MAGAIASRMSFSSLKRKQPKTFTVRIVTMDAEMEFNCEVKKQILDEKIYCPPEASVLLASYAVQAKYGDYDPSVHKRGFLAQEELLPKRVINLYQMTPEMWEERITAWYAEHRGRARDEAEMEYLKIAQDLEMYGVNYFAIRNKKGTELLLGVDALGLHIYDPENRLTPKISFPWNEIRNISYSDKEFTIKPLDKKIDVFKFNSSKLRVNKLILQLCIGNHDLFMRRRKADSLEVQQMKAQAREEKARKQMERQRLAREKQMREEAERTRDELERRLLQMKEEATMANEALMRSEETADLLAEKAQITEEEAKLLAQKAAEAEQEMQRIKATAIRTEEEKRLMEQKVLEAEVLALKMAEESERRAKEADQLKQDLQEAREAERRAKQKLLEIATKPTYPPMNPIPAPLPPDIPSFNLIGDSLSFDFKDTDMKRLSMEIEKEKVEYMEKSKHLQEQLNELKTEIEALKLKERETALDILHNENSDRGGSSKHNTIKKPQAQGRRPICI

Where “and” joins values, the source holds several entries; their conditions need not be identical. Identical values can stand only once.

In one assay the parent is B1. In words: reverse yeast two-hybrid deep mutational scan (rY2H-seq): NF2 isoform 7 mutant library as bait mated with wild-type prey strains; selection on medium lacking adenine for non-interacting pairs; NextSeq paired-end sequencing; enrichment vs …. The conditions noted are these: with EMILIN1 (elastin microfibril interfacer 1), Q9Y6C2; yeast diploids after mating (RBait_S3 x RPrey_S3), 30 °C, selection for reporter genes on NB agar; human tyrosine kinase ABL2 co-expressed as the active kinase …; HIGHER = WEAKER BINDING (the opposite of display enrichments): higher = stronger loss of interaction: reverse Y2H selects yeast in which bait and prey do NOT interact (growth without adenine), so a …; hits-only table; scale: rY2H score; numbering: uniprot, sequence starts at 1.
As for A406Q, the enrichment was found to be 2.56.
Regarding A406K, the enrichment was 2.13.
On the same count and under the same terms, as for S488R, the figure is 1.65; as for L315K, 4.2.
For L315W, the enrichment turned out to be 7.24.
On the same count and under the same terms, the figure for K229L is 1.52.
Still for that read-out and setting: the figure for R379E is 3.11 and 8.92; for T336K it is 4.16.
On to L389E, for which the enrichment was 2.12.
In the case of L371E, the enrichment worked out at 3.71.
The same measure, in the same setting: the figure for L371A is 2.9 and 1.56; for Q279E it is 2.35; for R471G it is 1.53.
The same measure, in the same setting: the figure for R263E is 2.7; for R263G it is 1.44; for E362K it is 4.17.
Still for that read-out and setting: the figure for A331K is 4.31; for A331E it is 2.11; for L422A it is 1.78.
On to D299L, for which the enrichment was 3.97 and 2.17.
The same measure, in the same setting: the figure for D299T is 1.88.
The same measure, in the same setting: the figure for V39G is 1.41; for G157K it is 3.64; for G157E it is 5.67 and 3.65.
On the same count and under the same terms, as for R335E, the figure is 2.52.
For R335C, the enrichment was found to be 2.88.
The same measure, in the same setting: as for A319L, the figure is 2.38 and 3.16; as for T269E, 4.01.
Take N143I: the enrichment is 5.68 and 2.91.
The same measure, in the same setting: as for R270K, the figure is 5.67.
Still for that read-out and setting: the figure for S73L is 1.58 and 3.38.
As to S73K, the enrichment was 2.
On the same count and under the same terms, the figure for R268E is 8.98 and 8.09; for H159L it is 2.93; for A107E it is 6.39.
On to D198N, for which the enrichment turned out to be 1.92.
Consider T332A, for which the enrichment stood at 4.79.
Consider T332E, for which the enrichment was 4.23 and 3.34.
The same measure, in the same setting: as for T332S, the figure is 2.08; as for E444A, 10.3 and 7.31.
Still for that read-out and setting: the figure for R383K is 2.82.

The same assay, now with this note: with KDM1A (lysine-specific histone demethylase 1A; the table's label AOF2 is a gene synonym of KDM1A), O60341; yeast diploids after mating (RBait_S3 x RPrey_S3), 30 °C, selection for reporter genes on NB agar; human ABL2 co-expressed as the kinase-dead K35M mutant …; HIGHER = WEAKER BINDING (the opposite of display enrichments): higher = stronger loss of interaction: reverse Y2H selects yeast in which bait and prey do NOT interact (growth without adenine), so a …; hits-only table; scale: rY2H score; numbering: uniprot, sequence starts at 1.
Regarding A406Q, the enrichment was found to be 1.87.
Regarding S488R, the enrichment came to 1.65.
Still for that read-out and setting: the figure for L315P is 2.33.
In the case of L315S, the enrichment stood at 4.11.
Still for that read-out and setting: the figure for L434R is 1.73; for R379E it is 6.74.
Turning to R379C, the enrichment amounted to 2.
Still for that read-out and setting: as for A365L, the figure is 2.1.
Same read-out and setting: as for T336L, the figure is 2.98.
The same measure, in the same setting: as for L389S, the figure is 1.45; as for L389K, 2.15.
Regarding Q279E, the enrichment was 4.82.
As for G78K, the enrichment turned out to be 1.76.
On the same count and under the same terms, the figure for E362L is 2.21; for A331K it is 2.19; for L422A it is 2.07.
As to D299L, the enrichment is 3.02 and 4.36.
Regarding K191Y, the enrichment was found to be 1.65.
On the same count and under the same terms, as for A319L, the figure is 4.6.
Same read-out and setting: the figure for A312L is 3.21; for V352S it is 3.21.
On the same count and under the same terms, as for R268E, the figure is 8.2 and 3.3.
Consider E187K, for which the enrichment stood at 1.65.
For the variant H159E, the enrichment turned out to be 3.49.
As for I171D, the enrichment came out at 5.35.
Still for that read-out and setting: as for R228G, the figure is 8.73; as for T332A, 1.86 and 5.52.
Still for that read-out and setting: as for T332E, the figure is 7.44.

Still in this assay, the particulars now being: with NF2 C-terminal domain (wild type; homomeric NF2-NF2 interaction), P35240; yeast diploids after mating (RBait_S3 x RPrey_S3), 30 °C, selection for reporter genes on NB agar; human ABL2 co-expressed as the kinase-dead K35M mutant …; HIGHER = WEAKER BINDING (the opposite of display enrichments): higher = stronger loss of interaction: reverse Y2H selects yeast in which bait and prey do NOT interact (growth without adenine), so a …; hits-only table; partner unresolved; scale: rY2H score; numbering: uniprot, sequence starts at 1.
In the case of S488R, the enrichment turned out to be 1.58.
Still for that read-out and setting: as for L315K, the figure is 1.46.
For the variant L434R, the enrichment was found to be 1.58.
Still for that read-out and setting: the figure for R379E is 1.99; for A365L it is 2.32.
On the same count and under the same terms, as for L389K, the figure is 4.56 and 2.51.
The same measure, in the same setting: as for L371A, the figure is 2.88; as for R263E, 3.74.
For A331E, the enrichment was 1.53.
Take D299L: the enrichment worked out at 3.22.
In the case of K191Y, the enrichment is 1.46.
The same measure, in the same setting: as for T269E, the figure is 3.61.
The same measure, in the same setting: as for S73L, the figure is 3.01; as for T332A, 2.4.
The same measure, in the same setting: the figure for R383K is 1.66.

The assay is the same for the next values; noted with them: with KDM1A (lysine-specific histone demethylase 1A; the table's label AOF2 is a gene synonym of KDM1A), O60341; yeast diploids after mating (RBait_S3 x RPrey_S3), 30 °C, selection for reporter genes on NB agar; human tyrosine kinase ABL2 co-expressed as the active kinase …; HIGHER = WEAKER BINDING (the opposite of display enrichments): higher = stronger loss of interaction: reverse Y2H selects yeast in which bait and prey do NOT interact (growth without adenine), so a …; hits-only table; scale: rY2H score; numbering: uniprot, sequence starts at 1.
On to L434R, for which the enrichment turned out to be 1.37.
The same measure, in the same setting: as for R379E, the figure is 5.6; as for R379C, 2.04; as for T336K, 2.26 and 6.75.
Still for that read-out and setting: the figure for L389E is 1.87.
Still for that read-out and setting: as for G78K, the figure is 5.27.
Take A331K: the enrichment was determined as 4.83.
The same measure, in the same setting: as for D299L, the figure is 4.23; as for R335C, 1.78 and 2.82; as for R268E, 7.56.
Still for that read-out and setting: the figure for H159L is 4.15 and 7.93.
H159E: the enrichment worked out at 1.44.
The same measure, in the same setting: as for T332A, the figure is 2.16.

Staying with this assay, now noted: with PIK3R3 (phosphatidylinositol 3-kinase regulatory subunit gamma), Q92569; yeast diploids after mating (RBait_S3 x RPrey_S3), 30 °C, selection for reporter genes on NB agar; human tyrosine kinase ABL2 co-expressed as the active kinase …; HIGHER = WEAKER BINDING (the opposite of display enrichments): higher = stronger loss of interaction: reverse Y2H selects yeast in which bait and prey do NOT interact (growth without adenine), so a …; hits-only table; scale: rY2H score; numbering: uniprot, sequence starts at 1.
For the variant T336K, the enrichment turned out to be 2.98.
For L389K, the enrichment stood at 2.43.
Still for that read-out and setting: the figure for L371A is 1.38; for G157K it is 7.92.
With G157E, the enrichment was 5.03 and 2.8.
For R270K, the enrichment turned out to be 4.09.
Still for that read-out and setting: the figure for S73L is 5.98; for S73K it is 3.5 and 2.86; for R268E it is 11.6.
For H159L, the enrichment was found to be 6.72.
Still for that read-out and setting: as for H159E, the figure is 6.11.
Turning to A107E, the enrichment is 6.23.
Still for that read-out and setting: the figure for I171D is 3.5 and 7.01.
Same read-out and setting: the figure for R228G is 15.3.

Values taken from PMC10244618.
